Laboratory results as given in patent publication US20260226189A1 (PHILOGEN S P A, published 2026).
Numbering of substitutions follows the chain as printed.

Assays:
[1] = target: T1, human carcinoembryonic antigen (CEA, CEACAM5) on cells or tumor tissue (human, UniProt P06731 35-685); assay: cell-based or functional assay
T1 sequence (looked up): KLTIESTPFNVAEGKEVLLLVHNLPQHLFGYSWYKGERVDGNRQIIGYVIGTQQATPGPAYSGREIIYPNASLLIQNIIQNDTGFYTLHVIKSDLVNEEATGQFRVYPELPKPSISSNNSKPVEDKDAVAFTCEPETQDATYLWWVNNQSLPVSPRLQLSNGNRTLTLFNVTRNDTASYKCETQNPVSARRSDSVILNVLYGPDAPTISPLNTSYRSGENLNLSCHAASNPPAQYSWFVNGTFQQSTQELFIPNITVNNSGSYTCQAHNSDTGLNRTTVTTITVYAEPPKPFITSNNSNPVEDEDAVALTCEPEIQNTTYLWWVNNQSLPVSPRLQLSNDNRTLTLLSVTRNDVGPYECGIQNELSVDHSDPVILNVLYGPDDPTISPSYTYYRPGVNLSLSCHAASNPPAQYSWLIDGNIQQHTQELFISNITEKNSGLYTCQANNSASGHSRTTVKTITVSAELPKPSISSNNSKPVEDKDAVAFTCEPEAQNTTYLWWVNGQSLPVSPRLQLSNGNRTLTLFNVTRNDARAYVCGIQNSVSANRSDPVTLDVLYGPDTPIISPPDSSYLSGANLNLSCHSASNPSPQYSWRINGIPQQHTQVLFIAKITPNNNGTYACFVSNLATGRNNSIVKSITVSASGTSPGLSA

[2] = target: T1, human carcinoembryonic antigen (CEA, …); assay: immunofluorescence on LS174T tumor cryosections, FITC-labelled IgG1
[3] = target: T2, human CEA (N-terminal domain) recombinant fragment containing a C-terminal 6xHis tag and a N-terminal BirA … (human, site specifically biotinylated using BirA (E. coli biotin ligase) at the BirA target sequence); assay: SPR (BIAcore X100), monomeric scFv over biotinylated CEA N-terminal domain on streptavidin chip
T2 construct: Expressed in CHO-S cells and immobilised on a streptavidin chip for all BIAcore runs; also called biotinylated CEA; human CEA N-terminal fragment
T2 chain: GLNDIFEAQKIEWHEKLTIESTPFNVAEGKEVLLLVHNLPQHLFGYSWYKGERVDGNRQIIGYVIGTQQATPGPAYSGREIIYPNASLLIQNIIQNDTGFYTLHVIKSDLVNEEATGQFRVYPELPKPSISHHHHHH

[4] = target: T1, human carcinoembryonic antigen (CEA, …); assay: flow cytometry titration on CT26-CEA cells, IgG1, PE anti-human IgG Fc detection; the CT26-wt curve stays near 0
[5] = target: T3, CEACAM1 transiently expressed on CHO cells (UniProt P13688 35-526, limits assumed); assay: flow cytometry contour plots (SSC against fluorescence) on CHO cells transiently expressing CEACAM1
T3 construct: whole, on cells
T3 sequence (looked up): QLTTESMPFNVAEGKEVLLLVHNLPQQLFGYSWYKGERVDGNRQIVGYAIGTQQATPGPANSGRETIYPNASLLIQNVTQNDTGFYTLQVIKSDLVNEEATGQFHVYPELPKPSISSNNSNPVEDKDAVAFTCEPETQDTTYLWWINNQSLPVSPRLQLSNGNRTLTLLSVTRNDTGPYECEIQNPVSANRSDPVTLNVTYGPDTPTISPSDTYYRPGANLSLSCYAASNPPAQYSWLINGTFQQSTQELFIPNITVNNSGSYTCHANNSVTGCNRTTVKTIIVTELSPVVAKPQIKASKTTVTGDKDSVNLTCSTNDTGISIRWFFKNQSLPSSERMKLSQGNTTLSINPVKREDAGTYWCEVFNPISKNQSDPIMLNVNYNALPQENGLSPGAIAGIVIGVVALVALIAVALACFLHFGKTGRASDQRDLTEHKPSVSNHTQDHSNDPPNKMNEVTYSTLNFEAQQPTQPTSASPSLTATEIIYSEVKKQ

[6] = target: T4, CEACAM6 transiently expressed on CHO cells (UniProt P40199 35-320, limits assumed); assay: flow cytometry contour plots (SSC against fluorescence) on CHO cells transiently expressing CEACAM6
T4 construct: whole, on cells
T4 sequence (looked up): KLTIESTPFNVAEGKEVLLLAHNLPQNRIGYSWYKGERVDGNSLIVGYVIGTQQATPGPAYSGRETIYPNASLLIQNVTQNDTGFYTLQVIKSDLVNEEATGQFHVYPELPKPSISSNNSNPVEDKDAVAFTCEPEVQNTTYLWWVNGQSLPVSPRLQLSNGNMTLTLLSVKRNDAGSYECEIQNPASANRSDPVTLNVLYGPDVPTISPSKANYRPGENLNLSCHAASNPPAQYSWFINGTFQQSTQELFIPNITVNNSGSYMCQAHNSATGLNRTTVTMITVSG

B1: PEA2-anti-CD3 (PUB4) bispecific antibody in scFv-IgG4 KIH format (bispecific antibody)
heavy 1: EVQLVESGGGLVQPGGSLRLSCAASGFTFSTYAMNWVRQAPGKGLEWVGRIRSKYNNYATYYADSVKDRFTISRDDSKNSLYLQMNSLKTEDTAVYYCVRHGNFGNSYVSWFAYWGQGTLVTVSSGGGGSGGGGSGGGGSQAVVTQEPSLTVSPGGTVTLTCRSSTGAVTTSNYANWVQQKPGQAPRGLIGGTNKRAPWTPARFSGSLLGGKAALTITGAQAEDEADYYCALWYSNLWVFGGGTKLTVLGGGGSGGGGSGGGGSEVQLLESGGGLVQPGGSLRLSCAASGFTFSRTAMSWVRQAPGKGLEWVSAIDYDGGVTYYADSVKGRFTISRDNSKNTLYLQMNSLRAEDTAVYYCAKLTYARFDYWGQGTLVTVSSASTKGPSVFPLAPCSRSTSESTAALGCLVKDYFPEPVTVSWNSGALTSGVHTFPAVLQSSGLYSLSSVVTVPSSSLGTKTYTCNVDHKPSNTKVDKRVESKYGPPCPPCPAPEFLGGPSVFLFPPKPKDTLMISRTPEVTCVVVDVSQEDPEVQFNWYVDGVEVHNAKTKPREEQFNSTYRVVSVLTVLHQDWLNGKEYKCKVSNKGLPSSIEKTISKAKGQPREPQVYTLPPCQEEMTKNQVSLWCLVKGFYPSDIAVEWESNGQPENNYKTTPPVLDSDGSFFLYSRLTVDKSRWQEGNVFSCSVMHEALHNHYTQKSLSLSLGK
heavy 2: EVQLLESGGGLVQPGGSLRLSCAASGFTFSRTAMSWVRQAPGKGLEWVSAIDYDGGVTYYADSVKGRFTISRDNSKNTLYLQMNSLRAEDTAVYYCAKLTYARFDYWGQGTLVTVSSASTKGPSVFPLAPCSRSTSESTAALGCLVKDYFPEPVTVSWNSGALTSGVHTFPAVLQSSGLYSLSSVVTVPSSSLGTKTYTCNVDHKPSNTKVDKRVESKYGPPCPPCPAPEFLGGPSVFLFPPKPKDTLMISRTPEVTCVVVDVSQEDPEVQFNWYVDGVEVHNAKTKPREEQFNSTYRVVSVLTVLHQDWLNGKEYKCKVSNKGLPSSIEKTISKAKGQPREPQVCTLPPSQEEMTKNQVSLSCAVKGFYPSDIAVEWESNGQPENNYKTTPPVLDSDGSFFLVSRLTVDKSRWQEGNVFSCSVMHEALHNHYTQKSLSLSLGK
light: EIVLTQSPGTLSLSPGERATLSCRASQSVSQNHLAWYQQKPGQAPRLLIYLASRRHTGIPDRFSGSGSGTDFTLTISRLEPEDFAVYYCQQSGRVPWTFGQGTKVEIKRTVAAPSVFIFPPSDEQLKSGTASVVCLLNNFYPREAKVQWKVDNALQSGNSQESVTEQDSKDSTYSLSSTLTLSKADYEKHKVYACEVTHQGLSSPVTKSFNRGEC
Q: With B1 as the binder, how does the “EC50, target cell killing (LS174T cells with human PBMCs, 5 days)” value [1] read?
A: 140000 nM

B2: anti-hen egg lysozyme antibody KSF in IgG1 format (antibody, V domains shown)
VH: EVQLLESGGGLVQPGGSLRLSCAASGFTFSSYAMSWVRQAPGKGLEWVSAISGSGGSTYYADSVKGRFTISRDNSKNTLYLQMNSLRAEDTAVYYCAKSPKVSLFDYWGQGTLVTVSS
VL: SSELTQDPAVSVALGQTVRITCQGDSLRSYYASWYQQKPGQAPVLVIYGKNNRPSGIPDRFSGSSSGNTASLTITGAQAEDEADYYCNSSPLNRLAVVFGGGTKLTVLG
notes: Negative control; It was conjugated to FITC for the immunofluorescence experiments; also called KSF IgG1; KSF (IgG1)
Q: Does B2 bind [2]?
A: no binding (tested: 10 ug/mL)

B3: F7 antibody in scFv format (scFv)
scFv: EVQLLESGGGLVQPGGSLRLSCAASGFTFSRTAMSWVRQAPGKGLEWVSAISGSGGSTYYADSVKGRFTISRDNSKNTLYLQMNSLRAEDTAVYYCAKLTYARFDYWGQGTLVTVSSGGGGSGGGGSGGGGEIVLTQSPGTLSLSPGERATLSCRASQSVSFPYLAWYQQKPGQAPRLLIYGASSRATGIPDRFSGSGSGTDFTLTISRLEPEDFAVYYCQQSGRVPWTFGQGTKVEIK
notes: also called F7 scFv
Q: With B3 as the binder, how does the Kd [3] read?
A: 50 nM

B4: PEA2 antibody in scFv format (scFv)
scFv: B3 scFv with S52D, G53Y, S54D, S57V, F162Q, P163N, Y164H, G182L, S185R, A187H
notes: also called PEA2 scFv
Q: B4 was tested. Which Kd [3] did it give?
A: 7.7 nM

B5: PEA2-anti-CD3 (PUB4) bispecific antibody in scDb-scFv with Fc KIH format (bispecific antibody, human IgG4 S228P)
heavy 1: EVQLLESGGGLVQPGGSLRLSCAASGFTFSRTAMSWVRQAPGKGLEWVSAIDYDGGVTYYADSVKGRFTISRDNSKNTLYLQMNSLRAEDTAVYYCAKLTYARFDYWGQGTLVTVSSGGSGGEIVLTQSPGTLSLSPGERATLSCRASQSVSQNHLAWYQQKPGQAPRLLIYLASRRHTGIPDRFSGSGSGTDFTLTISRLEPEDFAVYYCQQSGRVPWTFGQGTKVEIKGGGGSGGGGSGGGGSEVQLLESGGGLVQPGGSLRLSCAASGFTFSRTAMSWVRQAPGKGLEWVSAIDYDGGVTYYADSVKGRFTISRDNSKNTLYLQMNSLRAEDTAVYYCAKLTYARFDYWGQGTLVTVSSGGSGGEIVLTQSPGTLSLSPGERATLSCRASQSVSQNHLAWYQQKPGQAPRLLIYLASRRHTGIPDRFSGSGSGTDFTLTISRLEPEDFAVYYCQQSGRVPWTFGQGTKVEIKGSESKYGPPCPPCPAPEFLGGPSVFLFPPKPKDTLMISRTPEVTCVVVDVSQEDPEVQFNWYVDGVEVHNAKTKPREEQFNSTYRVVSVLTVLHQDWLNGKEYKCKVSNKGLPSSIEKTISKAKGQPREPQVYTLPPCQEEMTKNQVSLWCLVKGFYPSDIAVEWESNGQPENNYKTTPPVLDSDGSFFLYSRLTVDKSRWQEGNVFSCSVMHEALHNHYTQKSLSLSLGK
heavy 2: EVQLVESGGGLVQPGGSLRLSCAASGFTFSTYAMNWVRQAPGKGLEWVGRIRSKYNNYATYYADSVKDRFTISRDDSKNSLYLQMNSLKTEDTAVYYCVRHGNFGNSYVSWFAYWGQGTLVTVSSGGGGSGGGGSGGGGSQAVVTQEPSLTVSPGGTVTLTCRSSTGAVTTSNYANWVQQKPGQAPRGLIGGTNKRAPWTPARFSGSLLGGKAALTITGAQAEDEADYYCALWYSNLWVFGGGTKLTVLGSESKYGPPCPPCPAPEFLGGPSVFLFPPKPKDTLMISRTPEVTCVVVDVSQEDPEVQFNWYVDGVEVHNAKTKPREEQFNSTYRVVSVLTVLHQDWLNGKEYKCKVSNKGLPSSIEKTISKAKGQPREPQVCTLPPSQEEMTKNQVSLSCAVKGFYPSDIAVEWESNGQPENNYKTTPPVLDSDGSFFLVSRLTVDKSRWQEGNVFSCSVMHEALHNHYTQKSLSLSLGK
Q: B5 was tested. Which “EC50, target cell killing (LS174T cells with human PBMCs, 5 days)” value [1] did it give?
A: 40 PM

Q: And the “fold potency in target cell killing against the scFvCD3-IgGCEA KIH format” value [1]?
A: 3.5 fold

B6: F7 antibody in IgG1 format (antibody, V domains shown)
VH: EVQLLESGGGLVQPGGSLRLSCAASGFTFSRTAMSWVRQAPGKGLEWVSAISGSGGSTYYADSVKGRFTISRDNSKNTLYLQMNSLRAEDTAVYYCAKLTYARFDYWGQGTLVTVSS
VL: EIVLTQSPGTLSLSPGERATLSCRASQSVSFPYLAWYQQKPGQAPRLLIYGASSRATGIPDRFSGSGSGTDFTLTISRLEPEDFAVYYCQQSGRVPWTFGQGTKVEIK
notes: also called F7 IgG
Q: Which EC50 [4] does the source give for B6 here?
A: 0.77 nM

B7: PEA2 antibody in IgG1 format (antibody, V domains shown)
VH: B6 VH with S52D, G53Y, S54D, S57V
VL: EIVLTQSPGTLSLSPGERATLSCRASQSVSQNHLAWYQQKPGQAPRLLIYLASRRHTGIPDRFSGSGSGTDFTLTISRLEPEDFAVYYCQQSGRVPWTFGQGTKVEIKR
notes: also called PEA2 IgG1; PEA2 (IgG1)
Q: Which EC50 [4] does the source give for B7 here?
A: 0.29 nM

B8: PEA2 antibody as used in Example 8 (flow cytometry on transfected CHO cells) (antibody, V domains shown)
VH: B6 VH with S52D, G53Y, S54D, S57V
VL: B6 VL with F31Q, P32N, Y33H, G51L, S54R, A56H
notes: also called antibody PEA2
Q: Which results are given for B8?
A: binding result [5]: no binding (tested: 50 nM); binding result [6]: no binding (tested: 50 nM)
